In general, stoichiometry N refers to the number of molecules, sites or subunits per partner or assembly.

“And” between values parts separate entries of the source, which are not always exact repeats. Equal entries are not always repeated.

The values that follow come from article PMC10515612, “Analytical Ultracentrifugation-Calibrated Anion-Exchange Chromatography for Sensitive and Intact Determination of Osteopontin in Infant Formula and Dairy Products” (Journal of Agricultural and Food Chemistry, 2023).

This series concerns the molecule itself. Kind of series: AUC; sedimentation velocity, interference optics, OPN 1 mg/mL, 20 °C, 50,000 rpm; buffer changed from 20 mM THAM (10 mM NaCl, pH 8.00) to 20 mM PBS.

B1: Osteopontin (bovine milk osteopontin, in-house reference standard) (natural protein)
chain: not shown
modifications: phosphorylations (~1.7 kDa) and O-linked glycosylations (2.9 kDa) on the full-length form; sites not given
notes: Osteopontin, bovine, from milk; By MALDI-TOF the material also holds an N-terminal fragment (150 amino acids, ~19.8 kDa); The sample is a mixture of full-length OPN and an N-terminal fragment of about 150 residues; also called OPN; bovine OPN; source: high-purity OPN protein ingredient extracted and provided by Arla Foods Ingredients (Denmark)
Take B1: the “stoichiometry N” value is 4 and 8.
